Laboratory results published in US8546337B2, “Self-assembling peptide nanoparticles useful as vaccines” (Alpha-O-Peptides AG, priority 2008, dated 2013).

What was measured:
[1] = system: DR1, DR2, DR4, DR5, DRw6, DR7 and DR9 molecules; settings: cited from earlier work
[2] = analytical ultracentrifugation of SAPN; type: physicochemical; settings: for MW / No. of monomers: SAPN
Protocol: Three conditions were tested for assembling nanoparticles from the monomeric building block SEQ ID NO:33. The molecular weight (MW) of the SAPN was assessed by analytical ultracentrifugation: The peptide was dissolved at 0.42 mg/ml, 0.34 mg/ml, and 0.21 mg/ml, in 150 mM NaCl, 20 mM Tris, pH 7.5. The measured MW corresponds to SAPN composed of about 330 monomers, i.e. a nanoparticle with more monomers than needed for a regular polyhedron with 60 asymmetric units (Table 23).

[3] = type: physicochemical; settings: DLS at pH 6.5
[4] = peptide 0.21 mg/ml in 150 mM NaCl, 20 mM Tris, pH 7.5
[5] = peptide 0.34 mg/ml in 150 mM NaCl, 20 mM Tris, pH 7.5
[6] = peptide 0.42 mg/ml in 150 mM NaCl, 20 mM Tris, pH 7.5

Molecule: CS.T3 peptide: 17 C-terminal amino acids of P. falciparum circum sporozoite protein CS with two cysteines replaced by alanines (RLLLRLEELERRLEELEKKIAKMEKASSVFNVVLAALRRRLEELAR; trimeric coiled coil with P. falciparum HTL epitope)
- pan DR activity in cell proliferation assay [1]: stimulatory

B1: MGHHHHHHGDWKWDGGLVPRGSDEMLRELQETNAALQDVRELLRQQVKQITFLRALLMGGRLLARLEELERRLEELERRLEELERAINTVDLELAALRRRLEELAR (protein)
chain: MGHHHHHHGDWKWDGGLVPRGSDEMLRELQETNAALQDVRELLRQQVKQITFLRALLMGGRLLARLEELERRLEELERRLEELERAINTVDLELAALRRRLEELAR
modifications: building block comprising His-tag, COMP and P5c6
- molecular weight of the SAPN ([2]; analytical ultracentrifugation): about 4 MD
- number of monomers (peptide chains) per SAPN ([2]; from measured MW, 150 mM NaCl, 20 mM Tris, pH 7.5): about 330

B2: SEQ ID NO: 33 (protein)
chain: MGHHHHHHGDWKWDGGLVPRGSDEMLRELQETNAALQDVRELLRQQVKQITFLRALLMGGRLLARLEELERRLEELERRLEELERAINTVDLELAALRRRLEELAR
modifications: building block comprising His-tag, COMP and P5c6
- MW [2, 4]: 4066 kDa
- No. of monomers [2, 4]: 323
- MW [2, 5]: 4128 kDa
- No. of monomers [2, 5]: 328
- MW [2, 6]: 4331 kDa
- No. of monomers [2, 6]: 344

B3: MGHHHHHHASWKWDGGLVPRGSWQTWNAKWDQWSNDWNAWRSDWQAWKDDWAFWRALWMGGRLLLRLEELERRLEELEKKIAKMEKASSVFNVVLAALRRRLEELARGGSGANANPNANPNANPNANP (protein)
chain: MGHHHHHHASWKWDGGLVPRGSWQTWNAKWDQWSNDWNAWRSDWQAWKDDWAFWRALWMGGRLLLRLEELERRLEELEKKIAKMEKASSVFNVVLAALRRRLEELARGGSGANANPNANPNANPNANP
modifications: pentameric coiled coil with tryptophane zipper and trimeric coiled coil with P. falciparum HTL epitope
- particle diameter [3]: 44.6 nm
- polydispersity index [3]: 19.6%
